Key:
Test in all cases: SPR
[1] = molecular target: TopA881 (Streptomyces coelicolor, UniProt Q9X909 1-881, del882-952)
[2] = molecular target: CTDΔED (Streptomyces coelicolor, UniProt Q9X909 610-950, del951-952)
[3] = molecular target: TopA CTD (Streptomyces coelicolor, UniProt Q9X909 610-952)
[4] = molecular target: TopA wild type (Streptomyces coelicolor, UniProt Q9X909 1-952)

Measured: binding result

B1: sstopA-biot 120 nt ssDNA (63% GC) (ssDNA)
DNA: not shown
binds: all assays above

Source: paper PMC5714199
